From paper PMC6938514

Key:
[1] = target: MBPeng-KFLFAK (Escherichia coli | not stated); assay: SEC; central fractions of the monomeric or dimeric peak incubated for one week at 37 °C, then analytical SEC
[2] = target: MBPeng-KFL_(PYK2) (Escherichia coli | not stated) (UniProt Q14289); assay: crystal structure; dimeric SEC fractions crystallised by hanging drop at 23 °C, 15 mg/ml, pH 10.5; space group P1
[3] = target: MBPeng-KFL_(PYK2) (Escherichia coli | not stated) (UniProt Q14289); assay: SEC; large-scale Superdex 200 after the amylose column; protein applied at 15 mg/ml; 20 mM HEPES pH 7.5, 150 mM NaCl, 2 mM maltose, 2 mM DTT
[4] = target: MBPeng-KFL_(PYK2) (Escherichia coli | not stated) (UniProt Q14289); assay: SEC-SAXS; SWING beamline; 20 mM HEPES, 150 mM NaCl, 2 mM DTT, 2 mM maltose; dimer and monomer peaks fitted with models from the crystal structures

| Substance | percent of the dimeric fraction converted into monomers after one week at 37 °C [1] [%] | percent of the monomeric fraction converted into dimers after one week at 37 °C [1] [%] | stoichiometry N [2] | stoichiometry N [3] | stoichiometry N [4] |
| --- | --- | --- | --- | --- | --- |
| MBPeng-KFLFAK (from UniProt Q05397 805-832) | 20 | 20 | – | – | – |
| MBPeng-KFL_(PYK2) (from UniProt Q14289 790-839) | – | – | 2 | 2 | 2 |
